Biological target: the molecule itself
Assay: SEC

B1: Corynebacterium glutamicum citrate synthase with a C-terminal Strep tag (CgCS-Strep) (enzyme)
chain: MFERDIVATDNNKAVLHYPGGEFEMDIIEASEGNNGVVLGKMLSETGLITFDPGYVSTGSTESKITYIDGDAGILRYRGYDIADLAENATFNEVSYLLINGELPTPDELHKFNDEIRHHTLLDEDFKSQFNVFPRDAHPMATLASSVNILSTYYQDQLNPLDEAQLDKATVRLMAKVPMLAAYAHRARKGAPYMYPDNSLNARENFLRMMFGYPTEPYEIDPIMVKALDKLLILHADHEQNCSTSTVRMIGSAQANMFVSIAGGINALSGPLHGGANQAVLEMLEDIKSNHGGDATEFMNKVKNKEDGVRLMGFGHRVYKNYDPRAAIVKETAHEILEHLGGDDLLDLAIKLEEIALADDYFISRKLYPNVDFYTGLIYRAMGFPTDFFTVLFAIGRLPGWIAHYREQLGAAGNKINRPRQVYTGNESRKLVPREER
stoichiometry N: 2

— publication PMC13583000 (Nature Communications, 2026)
